Drawing on US20250186541A1, “DLL3 TARGETING PEPTIDES AND CONSTRUCTS THEREOF” (MARIANA ONCOLOGY INC., priority 2023, published 2025), this text covers % Binding and Kd for eleven molecules.

For test [1], the target named is DLL3 on SHP-77 cells (human) (UniProt Q9NYJ7). Briefly: 177Lu-labelled peptide on SHP-77 cells, 1 h 37 C, gamma count of bound fraction.
In test [2] the target is T1, Biotinylated human DLL3 (human, UniProt Q9NYJ7 27-492, biotinylated (site not stated)).
T1 construct: also called Delta-like ligand 3; Delta Like Canonical Notch Ligand 3
T1 sequence (looked up): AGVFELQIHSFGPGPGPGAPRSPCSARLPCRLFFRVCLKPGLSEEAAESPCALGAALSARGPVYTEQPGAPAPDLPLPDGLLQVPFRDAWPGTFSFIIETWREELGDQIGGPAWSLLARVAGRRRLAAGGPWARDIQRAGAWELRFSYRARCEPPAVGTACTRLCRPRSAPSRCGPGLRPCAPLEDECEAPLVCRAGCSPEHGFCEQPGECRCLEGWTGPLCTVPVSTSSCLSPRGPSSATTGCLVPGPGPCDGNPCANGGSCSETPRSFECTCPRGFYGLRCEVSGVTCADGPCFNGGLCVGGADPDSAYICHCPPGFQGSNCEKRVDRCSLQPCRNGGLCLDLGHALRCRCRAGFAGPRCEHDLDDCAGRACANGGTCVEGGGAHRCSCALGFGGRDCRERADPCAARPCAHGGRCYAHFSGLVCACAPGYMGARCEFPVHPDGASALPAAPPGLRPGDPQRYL
The test is described as follows: SPR, biotin-hDLL3 on SA chip; Cpd 58, a separate compound. A general note: In SPR one partner is held on a chip, and binding of the other changes the refractive index at the surface.

For test [3], the target named is T1, Biotinylated human DLL3. Briefly: SPR, biotin-hDLL3 on SA chip; Cpd 56, a separate compound.
Test [4] deals with Biotinylated human DLL3 (human) (UniProt Q9NYJ7). Briefly: SPR, biotin-hDLL3 on SA chip.
The target of test [5] is T1, Biotinylated human DLL3. Briefly: SPR, biotin-hDLL3 on SA chip; Cpd 59, a separate compound.

One may read the Kd as the equilibrium constant for the complex coming apart.

Numbered stars: 1 amine (or outer) side, 2 acyl side, 3 side chain; on linkers, the order of the positions; unused ones are H or OH. Bridge positions count the residues as written; N and C are the ends. Square brackets hold non-standard residues; d marks the D form. * marks the point of attachment. Ala(piperidin-4-yl) = O=C([C@H](CC1CCN([*:3])CC1)N[*:1])[*:2]; DOTA = O=C(O)CN1CCN(CC(=O)O)CCN(CC(=O)*)CCN(CC(=O)O)CC1; Phe(4-CF3) = N[C@@H](Cc1ccc(C(F)(F)F)cc1)C(=O)O; Trp(5-F) = N[C@@H](Cc1c[nH]c2ccc(F)cc12)C(=O)O; Trp(7-Me) = Cc1cccc2c(C[C@H](N)C(=O)O)c[nH]c12; 1Nal = N[C@@H](Cc1cccc2ccccc12)C(=O)O; 2Nal = N[C@@H](Cc1ccc2ccccc2c1)C(=O)O; NMeChg = CN[C@H](C(=O)O)C1CCCCC1; tBuAla = CC(C)(C)C[C@H](N)C(=O)O; αMeD = C[C@](N)(CC(=O)O)C(=O)O; AllylGly = C=CC[C@H](N)C(=O)O; PAF(DOTA) = not defined here; αMeP = C[C@@]1(C(=O)O)CCCN1; NMeS = CN[C@@H](CO)C(=O)O; PAF = not defined here; Ahx = NCCCCCC(=O)O

DLL3 on SHP-77 cells (human), sequence (Q9NYJ7 27-618 limits assumed): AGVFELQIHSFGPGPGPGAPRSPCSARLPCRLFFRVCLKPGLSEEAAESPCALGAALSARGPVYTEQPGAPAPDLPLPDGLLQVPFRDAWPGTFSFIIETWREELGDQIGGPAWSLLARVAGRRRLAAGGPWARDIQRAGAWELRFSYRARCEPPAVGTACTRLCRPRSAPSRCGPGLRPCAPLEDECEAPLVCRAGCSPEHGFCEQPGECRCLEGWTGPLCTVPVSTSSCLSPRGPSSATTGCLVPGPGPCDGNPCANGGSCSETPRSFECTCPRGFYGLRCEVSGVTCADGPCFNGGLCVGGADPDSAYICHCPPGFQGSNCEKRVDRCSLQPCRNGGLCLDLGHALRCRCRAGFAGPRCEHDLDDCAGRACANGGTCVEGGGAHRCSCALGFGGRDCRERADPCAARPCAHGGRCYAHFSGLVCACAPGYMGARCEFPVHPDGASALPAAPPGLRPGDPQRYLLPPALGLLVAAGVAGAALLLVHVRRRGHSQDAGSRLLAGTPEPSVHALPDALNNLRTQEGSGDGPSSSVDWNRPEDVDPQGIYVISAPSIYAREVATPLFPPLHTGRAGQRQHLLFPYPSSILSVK

Turning to Ac-[dA][NMeS]D[AllylGly][1Nal][tBuAla][PAF(DOTA)][2Nal]N[AllylGly][αMeP]FD-NH2 (staple 4-10; reading uncertain; also: 177Lu chelated) [[177Lu]Lu-Cpd #195], in test [1], the % Binding was 7%. Same read-out and setting: in the case of {DOTA}-[Ahx]SDC[1Nal][tBuAla][Ala(piperidin-4-yl)][2Nal]NC[αMeP]FD-NH2 (disulfide 4-10; also: 177Lu chelated) [[177Lu]Lu-Cpd #176] it was 6%; in that of Ac-[dA]SDC[1Nal][tBuAla]A[2Nal]DC[αMeP]FD[dK](DOTA)-NH2 (disulfide 4-10; also: 177Lu chelated) [[177Lu]Lu-Cpd #166], 7%.

B1: [177Lu]Lu-Cpd #192 (peptide)
peptide: Ac-[Ala(piperidin-4-yl)][NMeS]NC[1Nal][tBuAla][PAF(DOTA)][2Nal]DC[αMeP]FD-NH2
modifications: disulfide 4-10; reading uncertain; also: 177Lu chelated, printed as Ac-[3-(4-piperidinyl)-Ala]-(NMe-Ser)-N-C(3)-(1Nal)-(t-Bu-Ala)-[PAF(DOTA)]-(2Nal)-D-C(3)-(aMe-P)-F-D-CONH2; (3)=disulfide; 177Lu chelated
The molecule B1 displayed a % Binding in test [1] of 9%. Take Ac-MSDC[Trp(5-F)]LQWNCPFD[dK](DOTA)-NH2 (disulfide 4-10) [Cpd #58]: the Kd in the test with Biotinylated human DLL3 [2] turned out to be 42 nM.

B2: Cpd #56 (peptide)
peptide: Ac-MSDC[1Nal]LQWNCPFD[dK](DOTA)-NH2
modifications: disulfide 4-10
SMILES: CSCC[C@H](NC(C)=O)C(=O)N[C@@H](CO)C(=O)N[C@@H](CC(=O)O)C(=O)N[C@H]1CSSC[C@@H](C(=O)N2CCC[C@H]2C(=O)N[C@@H](Cc2ccccc2)C(=O)N[C@@H](CC(=O)O)C(=O)N[C@H](CCCCNC(=O)CN2CCN(CC(=O)O)CCN(CC(=O)O)CCN(CC(=O)O)CC2)C(N)=O)NC(=O)[C@H](CC(N)=O)NC(=O)[C@H](Cc2c[nH]c3ccccc23)NC(=O)[C@H](CCC(N)=O)NC(=O)[C@H](CC(C)C)NC(=O)[C@H](Cc2cccc3ccccc23)NC1=O
For the molecule B2, the Kd with Biotinylated human DLL3 [3] is 1.13 nM.

B3: Cpd #188 (peptide)
peptide: Ac-[Ala(piperidin-4-yl)]SDC[1Nal][NMeChg][PAF](DOTA)[Trp(7-Me)]NC[αMeP]FD-NH2
modifications: disulfide 4-10; reading uncertain; also: printed as Ac-[3-(4-piperidinyl)-Ala]-S-D-C(3)-(1Nal)-(NMe-Chg)-[PAF(DOTA)]-(7Me-W)-N-C(3)-(aMe-P)-F-D-CONH2; (3)=disulfide
Consider B3, for which the Kd in test [4] is greater than 30 nM. Ac-[Ala(piperidin-4-yl)]SD[AllylGly][1Nal][tBuAla][PAF(DOTA)][2Nal]N[AllylGly][αMeP]FD-NH2 (staple 4-10; reading uncertain; also: 177Lu chelated) [[177Lu]Lu-Cpd #200] yielded a % Binding in test [1] of 6%.

B4: [177Lu]Lu-Cpd #191 (peptide)
peptide: Ac-[Ala(piperidin-4-yl)][NMeS]DC[1Nal][tBuAla][PAF(DOTA)][2Nal]NC[αMeP]FD-NH2
modifications: disulfide 4-10; reading uncertain; also: 177Lu chelated, printed as Ac-[3-(4-piperidinyl)-Ala]-(NMe-Ser)-D-C(3)-(1Nal)-(t-Bu-Ala)-[PAF(DOTA)]-(2Nal)-N-C(3)-(aMe-P)-F-D-CONH2; (3)=disulfide; 177Lu chelated
Take B4: in test [1], the % Binding is 10%.

B5: Cpd #59 (peptide)
peptide: Ac-MSDC[Phe(4-CF3)]LQWNCPFD[dK](DOTA)-NH2
modifications: disulfide 4-10
SMILES: CSCC[C@H](NC(C)=O)C(=O)N[C@@H](CO)C(=O)N[C@@H](CC(=O)O)C(=O)N[C@H]1CSSC[C@@H](C(=O)N2CCC[C@H]2C(=O)N[C@@H](Cc2ccccc2)C(=O)N[C@@H](CC(=O)O)C(=O)N[C@H](CCCCNC(=O)CN2CCN(CC(=O)O)CCN(CC(=O)O)CCN(CC(=O)O)CC2)C(N)=O)NC(=O)[C@H](CC(N)=O)NC(=O)[C@H](Cc2c[nH]c3ccccc23)NC(=O)[C@H](CCC(N)=O)NC(=O)[C@H](CC(C)C)NC(=O)[C@H](Cc2ccc(C(F)(F)F)cc2)NC1=O
In the case of B5, the Kd with Biotinylated human DLL3 [5] was determined as 149 nM. In the case of Ac-[dA]S[αMeD]C[1Nal][tBuAla]Q[2Nal]NC[αMeP]FD[dK](DOTA)-NH2 (disulfide 4-10; also: 177Lu chelated) [[177Lu]Lu-Cpd #168], the % Binding in test [1] came out at 8%.
